Three molecules from PMC7736784 (2020) can be followed below.

What is called Kd is a measure of binding affinity in units of concentration.

For the assay, the target named is Sso7d-NanoLuc large fragment fusion.
Consider NVSGWRLFKKISN [NS5-Stoffel fusion (NanoLuc small fragment NS5)], for which binding was put at a Kd of 3.4 nM. For NVTGYRLFKKISN [NS4] the value was 8.5 nM. Next, GVTGWRLCERILA [NS6]: 900 nM.
